The data set concerns the molecule itself. Description: SEC-MALS.

1 protein from PMC5084695 (Biochemistry, 2016) can be followed below.

By stoichiometry N is commonly meant a count of units in the complex or per binding partner.

B1: SbnA (wild type, Staphylococcus aureus strain Newman) (enzyme, UniProt A6QDA0 1-326, looked up)
chain: MIEKSQACHDSLLDSVGQTPMVQLHQLFPKHEVFAKLEYMNPGGSMKDRPAKYIIEHGIKHGLITENTHLIESTSGNLGIALAMIAKIKGLKLTCVVDPKISPTNLKIIKSYGANVEMVEEPDAHGGYLMTRIAKVQELLATIDDAYWINQYANELNWQSHYHGAGTEIVETIKQPIDYFVAPVSTTGSIMGMSRKIKEVHPNAQIVAVDAKGSVIFGDKPINRELPGIGASRVPEILNRSEINQVIHVDDYQSALGCRKLIDYEGIFAGGSTGSIIAAIEQLITSIEEGATIVTILPDRGDRYLDLVYSDTWLEKMKSRQGVKSE
modifications: PLP (pyridoxal 5'-phosphate) covalently bound to Lys47 by an internal Schiff base (as isolated)
For B1, the “stoichiometry N” value amounted to 2.
